In experiment [1] the target is T1, SARS-CoV-2 RBD (receptor binding domain of spike protein of SARS-CoV-2) (SARS-CoV-2, UniProt P0DTC2 319-541).
Experiment [2] deals with T1, SARS-CoV-2 RBD (receptor binding domain …). The experiment can be described thus: HTRF ACE2/RBD binding assay (665/620 ratio); blocked ligand: ACE2. (In general: TR-FRET usually uses a lanthanide donor and a delayed reading to cut background.)
Experiment [3] shares this target. Description: ELISA, SARS-CoV-2 RBD coated on the plate, anti-human IgG-HRP, OD450. In general terms: In an ELISA, binding on a coated surface is turned into a signal by an enzyme label.
Experiment [4] has the same target. The source holds these as a separate data set.
For experiment [5] the target is unchanged. Description: HTRF ACE2/RBD binding assay, competition with ACE2.
The target of experiment [6] is T2, SARS-CoV-2 S1 protein NTD (N-terminal domain of spike protein of SARS-CoV-2) (SARS-CoV-2, UniProt P0DTC2 14-305).
T2 construct: also called S1-NTD; NTD of S1 subunit
The experiment can be described thus: biolayer interferometry, ForteBio Octet RED96e, NTD 250 nM to 7.81 nM, 1:1 model. For orientation: In BLI a coated tip is dipped into the sample, and binding shifts an interference pattern.

Experiment [7] has as its target T1, SARS-CoV-2 RBD (receptor binding domain …). Description: ELISA, S1-RBD coated on the plate, antibody at one concentration, anti-human IgG-HRP.
In experiment [8] the target is T3, SARS-CoV-2 S1 (S1 subunit of spike protein of SARS-CoV-2) (SARS-CoV-2, UniProt P0DTC2 14-685).
T3 construct: domain: S1; also called SARS-CoV-2 Spike protein S1 domain
Description: ELISA, SARS-CoV-2 S1 coated on the plate, anti-human IgG-HRP, OD450.

In experiment [9] the target is T2, SARS-CoV-2 S1 protein NTD (N-terminal …). Description: ELISA, S1-NTD coated on the plate, antibody at one concentration, anti-human IgG-HRP.

Like-named read-outs stand apart in the source and are kept apart here.

The term Kd denotes the free concentration of one partner at which half of the binding sites on the other are occupied at equilibrium, for simple one-to-one binding. A word on the IC50: it is the concentration that inhibits the measured activity by half. Usually EC50 stands for the concentration that produces a half-maximal response. Usually EC50 (read off the curve) stands for the concentration that produces a half-maximal response. Read a high EC50 (read off the curve) as weaker potency.

B1: Antibody 8-1 (antibody, V domains shown)
VH: EVQLVESGGGLIQPGGSLRLSCAASGLTVSSNYMTWVRQAPGKGLEWVSVIYSGGSTFYAESVKGRFTISRDNSKNTLYLQMNSLRAEDTAVYYCARDLVVYGMDVWGQGTTVIVSS
VL: DIQLTQSPSFLSASVGDRVTITCRASQGISSDLAWYQQKPGKAPKLLIYAASTLQSGVPSRFSGSGSGTEFTLTISSLQPEDFATYYCQQLNSHPLAFGPGTKVDIK
B1: binding in experiment [1] was characterised by a dissociation constant (Kd) of 0.047 nM. Further, the IC50 in experiment [2] amounted to 0.103 µg/mL. Moreover, it took 0.0506 µg/mL to reach a half-maximal effect in experiment [3] (EC50).

B2: Antibody 34-2 (antibody, V domains shown)
VH: EVQLVESGGGLVQPGRSLRLSCAASGFTFDESAMHWVRQAPGEGLEWVSGISWNSGRIAYADSVRGRFTISRDNAKNSLYLQMNSLRAEDTALYFCALTTSGWFSFDYWGQGTLVTVSS
VL: SYVLTQPPSVSVAPGKTARITCGGNNIGSKSVHWYQQKPGQAPVPVIYYDSDRPSGIPERFSGSNSGNTATLTISRVEVGDEADYYCQVWDSSSDRAVFGGGTTLTVL
With B2, the IC50 in [2] amounted to 0.115 µg/mL. In [3], the EC50 is 0.0493 µg/mL. In [4], the Kd was determined as 0.217 nM.

B3: Antibody 5-10 (antibody, V domains shown)
VH: EVQLLESGGGLVQPGGSLRLSCAASGFTFSSYAMSWVRQAPGKGLEWVSAIVGSGGSTYYADSVKGRFIISRDNSKNTLYLQMNSLRAEDTAVYYCAKSLIYGHYDILTGAYYFDYWGQGTLVTVSS
VL: DIQMTQSPSSVSASVGDRVTIPCRASQGIGNWLAWYQQKPGKAPKLLIYAASSLQSGVPSRFSGSGSGTDFTLTISSLQPEDFATYYCQQANSFPPFGQGTRLEIK
With B3, the EC50 in [3] came to 0.0269 µg/mL. This molecule also showed a Kd in experiment [4] of 4.32 nM.

B4: Antibody 8-3 (antibody, V domains shown)
VH: EVQLVESGGGLVQPGGSLRLSCAASGITVSSNYMNWVRQAPGKGLDWVSVIYSGGSTFYADSVKGRFIISRDNSKNTLFLQMDSLRVEDTAVYYCARDLVVRGVDIWGQGTMVTVSS
VL: DIQLTQSPSFLSASVGDRVTITCRASQGISSDLAWYHQKPGKAPKLLIYAASTLQSGVPSRFSGSGSGTEFTLTISSLQPEDFATYYCQQLNSYRGLIFGGGTKVEIK
For the molecule B4, the IC50 in [2] amounted to 0.109 µg/mL. The molecule also came in with an EC50 in experiment [3] of 0.0483 µg/mL. The molecule also registered a Kd in experiment [4] of 1.55 nM.

B5: Antibody 14-4 (antibody, V domains shown)
VH: QMQLVQSGPEVKKPGTSVKVSCKASGFTFTTSAVQWVRQARGQRLEWIGWIVVGSGNTNYAQKFQERVTITRDMSTSTGYMELSSLRSEDTAVYYCAAPNCNRTSCDDGFDIWGQGTMVTVSS
VL: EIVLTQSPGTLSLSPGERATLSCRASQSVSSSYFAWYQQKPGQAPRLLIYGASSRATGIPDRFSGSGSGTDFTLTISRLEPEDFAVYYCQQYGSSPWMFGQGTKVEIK
Take B5: the IC50 in experiment [2] worked out at 0.103 µg/mL. The same molecule showed an EC50 in [3] of 0.0162 µg/mL. In addition, the Kd in [4] is 2.62 nM.

B6: Antibody 29-2 (antibody, V domains shown)
VH: QITLKESGPTLVKPTQTLTLTCTFSGFSLSSSGMGVGWIRQPPGKALEWLALIYWNDDKRYSPSLKSRLTITKDTSKNQVVLTLTNMDPVDTATYYCAHTTLYNNCPFDYWGQGTLVTVSS
VL: SYVLTQPPSVSVAPGKTARITCGGNNIGSYSVHWYQQRPGQAPVLVIYYDSDRPSGIPERFSGSNSGNTATLTISRVEAGDEADYYCQVWDNSSNHPWVFGGGTKLTVL
As for B6, the IC50 in [2] turned out to be 0.117 µg/mL. Further, in experiment [3], the response was half-maximal at 0.0372 µg/mL (EC50). This molecule also yielded a dissociation constant Kd in experiment [4] of 0.392 nM.

B7: Antibody 9-8 (antibody, V domains shown)
VH: EVQLVESGGGVVQPGGSLRLSCAASGFTFDDYAIHWVRQAPGKGLEWVSLISGDGGTTYYADFVKGRFTISRDNSKNSLYLQMNSLRTEDTALYYCAKDIPVCSSTICYRFTARLHGMDVWGQGTTVTVSS
VL: DIQMTQSPSSLSASVGDRVTITCRASQSISSYLNWYQQKPGKAPKLLIYTASSLQSGVPSRFSGSGSGADFTLTISSLQPEDFATYYCQQRYSTPLTFGGGTKVEIK
As for B7, a half-maximal effect in experiment [3] (EC50) was put at 0.0243 µg/mL. In addition, the Kd in [4] is 4.75 nM. The IC50 in experiment [5] is 4.14 µg/mL.

B8: Antibody 9-1 (antibody, V domains shown)
VH: QLQLQESGPGLVKPSETLSLTCTVSGGSISSSTYYWAWIRQPPGKGLEWIGSIYYSGSTYYNPSLKSRVTISVHTSKNQFSLKLTSVTAADTAVYYCARSMGLHDYWGQGTLVTVSS
VL: DIQMTQSPSSLSASVGDRVTITCRASQGIGNSLAWYQQKPGRAPKFLLYAASTLESGVPSRFSGSGSGTHFTLTISSLQPEDFATYFCQQYYSTPPYTFGQGTRLEIK
As to B8, in experiment [2], the IC50 amounted to 0.105 µg/mL. In [3], this molecule gave an EC50 of 0.0886 µg/mL. The Kd in [4] is 0.835 nM.

B9: Antibody 29-13 (antibody, V domains shown)
VH: QITLKESGPTLVKPTQTLTLTCTFSGFSLSTSGVGVGWIRQPPGKALEWLALIYWDDDKRYSPSLKSRLSITKDTSKNQVALTVTNMDPVDTATYYCAHRRPGPGSYYFDYWGQGTLVTVSS
VL: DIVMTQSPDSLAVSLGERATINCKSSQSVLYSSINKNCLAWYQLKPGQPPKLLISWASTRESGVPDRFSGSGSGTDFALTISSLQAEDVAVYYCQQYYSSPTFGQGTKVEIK
In the case of B9, the IC50 in experiment [2] is 0.0954 µg/mL. This molecule also had an EC50 in [3] of 0.00473 µg/mL. Also, in [4], binding was put at a Kd of 1.28 nM.

B10: Antibody 12-11 (antibody, V domains shown)
VH: QVQVVQSGAEVKKPGASVKVSCKVSGYTLIEISIHWVRQAPGKGLEWMGGFDPEAGETIYAQKFQGRVTMTEDTSTDTAYMEVSSLRSEDTAVYYCATGPAIAAAETNWFDLWGQGTLVTVSS
VL: QSALTQPASVSGSPGQSITISCTGTSSDVGSYNYVSWYQQHPGKAPKLMIYDVTKRPSGVPDRFSGSKSGNTASLTISGLQAEDEADYYCSSYTSSSTWVFGGGTKLTVL
On to B10, for which binding in experiment [6] was put at a Kd of 5.82 nM. Also, the OD450 is 0.0638 in experiment [7] and 3.93 in experiment [9]. Also, the 50% effective concentration (EC50 (read off the curve)) in experiment [8] is roughly 0.1 µg/mL.

B11: Antibody 12-13 (antibody, V domains shown)
VH: QVQVVQSGAEVKKPGASVKVSCKVSGYTLTELSIHWVRQTPGKGLEWMGGFDPEDGETIYAQWLQGRVTMTEDTSTDIAYMELSSLRHEDTAVYYCATGPAIAGAGTNWFDPRGQGTLVIVSS
VL: QSALTQPASVSGSPGQSITISCTGTSSDVGGYNYVSWYQQHPGKAPKLMIYDVSKRPSGVPDRFSGSKSGNTASLTISGLQAEDEADYYCTSYTNSSTWVFGGGTKLTVL
Consider B11, for which, in experiment [6], the Kd turned out to be 5.61 nM. In addition, the figures for the OD450 in experiment [7] and in experiment [9] were 0.06 and 3.96, respectively. Moreover, the “EC50 (read off the curve)” value in [8] was roughly 0.07 µg/mL.

B12: Antibody 14-8 (antibody, V domains shown)
VH: QVQLVQSGAEVKKPGASVKVSCKASGYTFTGYYIHWVRQAPGKGPEWMGWINPNSGGTNYAQKFQGWVTMTRDTSISAAYMELSRLKFDDTAIYYCAKSGEKVGADLGYYDYGMDLWGQGTTVTVSS
VL: SYELTQPPSVSVSPGQTARITCSGDALPKQYAYWYQQKPGQAPVMVIYKDTERPSGIPERFSGSSSGTTVTLTISGVQAEDEADYNCQSVDSSGAYVVFGGGTKLTVL
The molecule B12 displayed a dissociation constant Kd in experiment [6] of 7.08 nM. The OD450 in experiment [7] was 0.0693; in experiment [9] it was 3.98. Besides, in experiment [8], the “EC50 (read off the curve)” value was roughly 0.1 µg/mL.

B13: Antibody 12-9 (antibody, V domains shown)
VH: EVQLVESGGGLVKPGGSLRLSCAASEFTFSSYSMNWVRQAPGKGLEWVSSISSSGSDIYYADSVKGRFTISRDNAKKSLYLQMNSLRVEDTAVYYCATNGGAHSSTWSFYGMDVWGQGTTVTVSS
VL: SYELTQPPSVSVSPGQTATITCSGDKLGDKYACWYQQRPGQSPVLVIYQDSKRPSGIPERFSGSNSGNTATLTIGGTQAMDEAAYFCQAWDSNTGVFGGGTKLTVL
In experiment [6], B13 returned a Kd of 16.7 nM. Further, the OD450 in experiment [7] turned out to be 0.0764; in experiment [9] it was 3.76. Besides, the “EC50 (read off the curve)” value in [8] is roughly 0.03 µg/mL.

B14: Antibody 12-17 (antibody, V domains shown)
VH: EVQLVESGGGLVKPGGSLRLSCAASGFTLNSYSMNWVRQAPGKGLEWVSSISSTSSDIYYADSVKGRFTISRDNAKNSVDLQMNSLRAEDTAVYYCATNGGAHRNTWSFYGMDVWGQGTTVTVSS
VL: SYELTQPPSVSVSPGQTASITCSGDKLGDKYASWYQQKPGQSPVLVIYQDTKRPSGIPERFSGSNSGNTVTLTISGTQAMDEADYYCQAWDSSTGVFGGGTKLTVL
As for B14, in experiment [6], the Kd is 5.49 nM. Also, the OD450 in experiment [7] was 0.0641; in experiment [9], 3.95. In experiment [8], the “EC50 (read off the curve)” value is roughly 0.04 µg/mL.

B15: Antibody 13-17 (antibody, V domains shown)
VH: QDQLVQSGAEVKKPGASVKVSCKVSGYTLPELSLHWVRQPPGKGLEWMGGFDPEDGETIYAQKFQGRVTMTEDTSTDTAYMELSSLRSEDTAVYYCAASTPMGGHTDWLDPWGQGTLVTVSS
VL: QSVLTQPPSVSAAPGQKVTISCSGSSSNIGNNYVSWYQQLPGTAPKLLIYDNNKRPSGIPDRFSGSKSGTSATLGITGLQTGDEADYYCGTWDSSLSAGVFGGGTKLTVL
In experiment [6], B15 had a Kd of 4.39 nM. Besides, the results for the OD450 in [7] and in experiment [9] were 0.0815 and 3.91, respectively. Further, the “EC50 (read off the curve)” value in experiment [8] is roughly 0.1 µg/mL.

These data come from patent US20240262892A1 (NANJING VAZYME BIOTECH, published 2024).
